From patent publication US20250340623A1 (AC IMMUNE, published 2025) come the findings set out here.

Numbering of substitutions follows the chain as printed.

In general, Kd refers to the equilibrium constant for the complex coming apart. High values mean a looser complex, low ones a tighter complex. Broadly, the koff is the rate constant with which the complex falls apart. As a reminder, the kon is a measure of how fast the partners come together.

To fix the notation:
B1: ACI-7089-4415G5-Ab1 (antibody, V domains shown)
VH: QVQLQQSGAELARPGASVKVSCKASGYTFTSSGISWLKHRTGQGLEWIGDIYPRSGNTYYNEKFKDKATLTADKSSSTAYMELRSLTSEDSAVYFCASGNYWGQGTTLTVSA
VL: DIVITQDDLSNPVTSGESVSISCRSSKSLLYKDGKTYLNWFLQRPGQSPQLLIYLMSTRASGVSDRFSGSGSGTDFTLEISRVKAEDVGVYYCQQLLEYPLTFGAGTKLELK
notes: mouse hybridoma mAb; VH/VL only; also called 4415G5A11
B2: ACI-7087-4119E10-Ab2 (antibody, V domains shown)
VH: QVQLQQSGAELVRPGASVTLSCKASGYTFSDYEMNWVKQTPVHGLEWIGAIDPETGGTAYNQKFKGKAILTSDKSSSTAYMELRSLTSEDSAVYYCTRFLLIDFDYWGQGTTLTVSS
VL: DVLMTQTPLSLPVSLGDQASISCRSSQSIVHSNGNTYLEWYLKKAGQSPKVLIYKVSNRFSGVPDRFSGSGSGTDFTLKISRVEAEDLGVYYCFQGSHVPYTFGGGTELEIK
notes: mouse hybridoma mAb; VH/VL only; also called 4119E10D12
B3: ACI-7079-3101E3-Ab1 (antibody, V domains shown)
VH: QVQLKESGPGLVAPSQSLSITCTVSGFSLTRYIINWVRQPPGKGLEWLGVIWTGGGTDYNSALKSRLSISKDNSKSQVFLKMNSLQTDDTARYYCAREYGYDGAWFAYWGQGTLVTVSA
VL: B2 VL with S28T, K43Q, A45P, V51L, E108K
notes: mouse hybridoma mAb; VH/VL only; also called 3101E3C9
B4: ACI-7079-3103G12-Ab2 (antibody, V domains shown)
VH: DVQLQESGPGMVKPSQSLSLTCTVTGYSITSGYDWHWIRHFPGNKLEWMGYITYSGSTNYNPSLKSRISITHDTSKNHFFLKLTSVTTEDTATYYCARDTVDAWFAYWGQGTLVTVSA
VL: B2 VL with T7A, N35D, K43Q, A45P, V51L, Y101P, E108K
notes: mouse hybridoma mAb; VH/VL only; also called 3103G12D2B10
B5: ACI-8033-21C8-Ab1 (antibody, V domains shown)
VH: QVQLQQPGAELVKPGASVKMSCKASGYTFTSYWITWVRQRPGQGLDWIGDIYPGGGVTNYNEKFKTKATLTVDTSSSTAYMHLSSLTSEDSAVYFCATAQTTFAYWGQGTLVTVSA
VL: B2 VL with S28N, S32N, K43Q, A45P, V51L, Y101R, E108K
notes: mouse hybridoma mAb; VH/VL only; also called 917.21C8E4C8
B6: ACI-7088-4301D5-Ab2 (antibody, V domains shown)
VH: QVQLQQSGPELVRPGASVKISCKASGYRFTSYYIHWVKQRPGQGLEWIGWIYPGSDNTKHNDKFKGKATLTADTSSSTAYMQLSSLTSEDSAVYFCARDYDVGFGYWGQGTLVTVSS
VL: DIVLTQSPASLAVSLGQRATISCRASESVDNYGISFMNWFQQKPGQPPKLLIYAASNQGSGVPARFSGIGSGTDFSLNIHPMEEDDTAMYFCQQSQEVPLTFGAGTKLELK
notes: mouse hybridoma mAb; VH/VL only; also called 4301D5B10
B7: ACI-8033-6403E11-Ab2 (antibody, V domains shown)
VH: DVQLQESGPGLVKPSQSLSLTCSVTGYSITSAYYWNWIRQFPGNKLEWMGYISYDGSNNYIPSLKNRISISRDTSKNQFFLKLNSVTTEDTATYYCIRGDVNWGQGTTLTVSS
VL: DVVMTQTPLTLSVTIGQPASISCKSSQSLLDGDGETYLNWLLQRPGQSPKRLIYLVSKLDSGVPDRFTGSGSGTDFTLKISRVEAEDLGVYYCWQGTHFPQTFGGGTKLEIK
notes: mouse hybridoma mAb; VH/VL only; also called 6403E11B4
B8: ACI-7089-4418C5-Ab1 (antibody, V domains shown)
VH: B7 VH with V2G, A32G, S53N, I61N, S71T, L83F, S85F, I97V, N102Y
VL: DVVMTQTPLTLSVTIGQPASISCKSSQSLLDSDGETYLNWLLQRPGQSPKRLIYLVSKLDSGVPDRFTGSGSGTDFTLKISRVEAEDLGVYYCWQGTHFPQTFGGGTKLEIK
notes: mouse hybridoma mAb; VH/VL only; also called 4418C5G1
B9: ACI-8033-6402E10-Ab1 (antibody, V domains shown)
VH: B7 VH with S15V, A32G, Y54S, I61N, N84D, I97V, G99A, V101N, N102Y
VL: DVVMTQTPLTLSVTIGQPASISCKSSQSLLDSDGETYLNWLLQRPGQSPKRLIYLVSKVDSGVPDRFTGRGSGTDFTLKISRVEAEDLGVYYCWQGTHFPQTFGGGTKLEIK
notes: mouse hybridoma mAb; VH/VL only; also called 6402E10B3
B10: ACI-7088-4301E12-Ab2 (antibody, V domains shown)
VH: DVQLQESGPGLVKPSQSLSLTCSVTGYSITSGYYWNWIRQFPGNKLEWMGYISDDGSKNYNPSLKNRISITRDTSKNQLFMKLNSVTTEDTATYYCARGDSRLGQGTLVTVSA
VL: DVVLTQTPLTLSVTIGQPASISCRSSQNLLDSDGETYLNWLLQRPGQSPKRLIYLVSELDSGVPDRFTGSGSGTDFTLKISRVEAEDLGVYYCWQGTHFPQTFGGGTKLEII
notes: mouse hybridoma mAb; VH/VL only; also called 4301E12B9
B11: ACI-8033-22E5-Ab1 (antibody, V domains shown)
VH: EVQLVESGGDLVKPGGSLKLSCAASGFTFSSYGMSWVRQTPDKRLEWVATISNGGSYTYYPDSVKGRFTISRDNAKNTLYLQMSSLKSEDTAMYYCARQLRRDGWYFDVWGTGTTVTVSS
VL: EIVLTQSPALMAASPGEKVTITCSVSSSISSSKLHWYQQKSETSPKLWIYGTSNLASGVPVRFSGSGSGTSYSLTISSMEAEDAATYYCQQWSSYPLTFGAGTKLELK
notes: mouse hybridoma mAb; VH/VL only; also called 917.22E5C5F7
B12: ACI-7079-2601B6-Ab1 (antibody, V domains shown)
VH: EIQLQQSGAELVRPGASVKLSCTTSGFNIKDDYIHWVKQRPEQGLEWIGWIDPENGDTDYASKFQGKATITADTSSNTAYLHLSSLTSEDAAVYFCTTRGFGYWGQGTLVTVS
VL: DIVMTQSHKFMSTSVGDRVSITCKASQDVGNVVAWYQQKPGQSPKLLIYWASSRHTGVPDRFTGSGSGTEFTLTISNVQSEDLADYFCQQYSSYPLTFGAGTKLELK
notes: mouse hybridoma mAb; VH/VL only; also called 2601B6D2; ACI-7079-26016NAbM
B13: ACI-7079-3103D9-Ab1 (antibody, V domains shown)
VH: QVSLKESGPGILQPSQTLSLTCSFSGFSLSTFGMGVGWIRQPSGKGLDWLTHIWWDDDKYYNPGLKSRLTISKDTSKNQVFLEIANVDTADTATYYCARIGDYYGTRGYFDVWGTGTTVTVSS
VL: DIVMTQSPSSLTMSLGQTVTMSCKSSQSLLNSSNQKNHLAWYQQRPGQSPKLLVYFASTRESGVPERFIGGGSGTDFTLTISNVQSEDLTDYFCQQHYSTPYTFGGGTKLEIK
notes: mouse hybridoma mAb; VH/VL only; also called 3103D9C9
B14: ACI-7079-3106C5-Ab1 (antibody, V domains shown)
VH: B13 VH with S3T, D48E, G64A, K73R, T75P, E83K, T106S
VL: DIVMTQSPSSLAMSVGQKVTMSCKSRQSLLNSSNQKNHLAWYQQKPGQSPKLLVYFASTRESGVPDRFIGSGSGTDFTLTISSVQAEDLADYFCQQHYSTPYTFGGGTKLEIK
notes: mouse hybridoma mAb; VH/VL only; also called 3106C5B7
B15: ACI-7079-3104F12-Ab2 (antibody, V domains shown)
VH: B13 VH with S3T, L12V, S30N, M34L, G64A, E83K, Y103F, T106S
VL: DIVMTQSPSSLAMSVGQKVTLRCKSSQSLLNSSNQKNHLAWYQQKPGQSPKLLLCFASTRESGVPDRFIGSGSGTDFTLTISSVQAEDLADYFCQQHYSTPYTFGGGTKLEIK
notes: mouse hybridoma mAb; VH/VL only; also called 3104F12F2H7
B16: ACI-7079-3108C10-Ab2 (antibody, V domains shown)
VH: ELQLVESGGGLVRPGGSLKLSCATSGFTFRNYAMSWVRQTPAKRLEWVATISDGGTYTFYSDNVKGRFTISRDNVKNTLYLQMSHLKSEDTAMYYCSRAGSGHWGQGTTLTVSS
VL: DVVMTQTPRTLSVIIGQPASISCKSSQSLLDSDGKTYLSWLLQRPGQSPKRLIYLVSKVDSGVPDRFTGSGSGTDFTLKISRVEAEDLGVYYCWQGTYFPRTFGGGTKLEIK
notes: mouse hybridoma mAb; VH/VL only; also called 3108C10G6
B17: ACI-7087-4125E6-Ab1 (antibody, V domains shown)
VH: QVQLQQPGTELVKPGASVRLSCKASGYAFTSYWMHWVKQRPGQGLEWIGNINPSNGGTNYNEKFKNKATLTVDKSSSTAYMQLSGLTSEDSAVYYCATGLHYWGQGTTLTVSS
VL: DIQMTQSPSSLSASLGERVTLTCRASQDIGNYLNWLQQEPDGTIKRLIYATSSLDSGVPKRFSGSRSGSDYSLTISSLESEDFVDYYCLQFASSPLTFGPGTKLELK
notes: mouse hybridoma mAb; VH/VL only; also called 4125E6D5

The first experiment concerns the target alpha-synuclein fibrils (UniProt P37840 1-140). In words: SPR, captured mAb. The method, then:
(§1) Non-covalent immobilization of alpha-synuclein antibodies was performed using a target immobilization method of 2000 response units (RU). Antibodies were diluted in 10 mM sodium acetate pH 5.5 (GE Healthcare, BR-1003-52) to a final concentration of 5 μg/mL.
(§2) Binding affinity of alpha-synuclein antibodies to monomeric or fibrillar alpha-synuclein species was performed using a single-cycle kinetics method. The instrument was primed with 1×HBS-P+ buffer (10× stock from GE Healthcare, BR-1003-52 diluted in Milli-Q water). Injections of monomeric alpha-synuclein (aSyn) (Boston Biochem, SP-485), increasing in concentration from 0.62-50 nM prepared from serial 2-fold dilutions, were performed with contact times of 300 sec/injection at a flow rate of 30 μL/min. A dissociation phase of 900 sec followed the final 50 nM injection. Regeneration of the sensor to the goat anti-mouse antibody layer was achieved using 3 regenerations of 10 mM Glycine pH 1.7. […] Regeneration of the sensor to the goat anti-mouse antibody layer was achieved using 3 regenerations of 10 mM Glycine pH 1.7. Results obtained from single-cycle kinetics were evaluated by Biacore T200 evaluation software with 1:1 binding homogenous Langmuir model (with a global Rmax) with Cycle 5 as a blank subtraction. The following kinetic parameters were obtained: on-rate (ka), off-rate (kd), affinity constant (KD, ratio of kd by ka), maximum response (Rmax), and goodness of fit (Chi2).
(§3) Non-covalent capture of the alpha-synuclein antibodies was performed in three separate runs.
On the technique in general: SPR reads the build-up and loss of mass on a sensor chip optically.
B1 came in with a Kd of 1.3 nM, a koff of 0.00031 s⁻¹ and an on-rate (kon) of 242000 M⁻¹ s⁻¹.
The like results for B2 were, in that order, 16.2 nM, 0.00453 s⁻¹ and 280000 M⁻¹ s⁻¹.
In the same order, the values of B3 are 13.7 nM, 0.000129 s⁻¹ and 9380 M⁻¹ s⁻¹.
The like results for B4 were, in that order, 22.5 nM, 0.000563 s⁻¹ and 25000 M⁻¹ s⁻¹.
In turn, B5 had a Kd of 17.7 nM, a koff of 0.000156 s⁻¹ and a kon of 8810 M⁻¹ s⁻¹.
In the same order, the values of B6 are 35.8 nM, 0.000385 s⁻¹ and 10800 M⁻¹ s⁻¹.
The like results for B7 were, in that order, 44.6 nM, 0.000273 s⁻¹ and 6110 M⁻¹ s⁻¹.
The like results for B8 were, in that order, 0.05 nM, 9.4e-06 s⁻¹ and 207000 M⁻¹ s⁻¹.
For B9, the dissociation constant (Kd) amounted to 37.4 nM, the off-rate (koff) was determined as 0.000152 s⁻¹ and the kon was determined as 4060 M⁻¹ s⁻¹.
The like results for B10 were, in that order, 39 nM, 0.000166 s⁻¹ and 4250 M⁻¹ s⁻¹.
The like results for B11 were, in that order, 1.8 nM, 3.27e-05 s⁻¹ and 18000 M⁻¹ s⁻¹.
The like results for B12 were, in that order, 22 nM, 0.000382 s⁻¹ and 17400 M⁻¹ s⁻¹.
For the molecule B13, the Kd was determined as 9.2 nM, the off-rate (koff) was found to be 0.000413 s⁻¹ and the kon was determined as 44800 M⁻¹ s⁻¹.
The like results for B14 were, in that order, 9.49 nM, 0.000237 s⁻¹ and 25000 M⁻¹ s⁻¹.
The molecule B15 yielded a dissociation constant Kd of 3.73 nM, a dissociation rate constant (koff) of 0.000268 s⁻¹ and a kon of 71800 M⁻¹ s⁻¹.
The like results for B16 were, in that order, 6.77 nM, 6.66e-05 s⁻¹ and 9840 M⁻¹ s⁻¹.
In the same order, the values of B17 are 50.7 nM, 0.000567 s⁻¹ and 11200 M⁻¹ s⁻¹.

For the next experiment, the target named is monomeric alpha-synuclein (UniProt P37840 1-140). In words: SPR, captured mAb. As to the method: as §1, §2, §3
Regarding B1, the dissociation constant (Kd) turned out to be 2.4 nM, the koff was determined as 0.000141 s⁻¹ and the kon was determined as 60000 M⁻¹ s⁻¹.
In the same order, the values of B2 are 1040 nM, 0.0188 s⁻¹ and 18000 M⁻¹ s⁻¹.
In the same order, the values of B3 are 300 nM, 0.0569 s⁻¹ and 190000 M⁻¹ s⁻¹.
Consider B4, for which the Kd was 2.4 nM, the dissociation rate constant (koff) was determined as 0.0014 s⁻¹ and the kon amounted to 580000 M⁻¹ s⁻¹.
The like results for B5 were, in that order, 1.6 nM, 0.000482 s⁻¹ and 301000 M⁻¹ s⁻¹.
The like results for B6 were, in that order, 620 nM, 0.0353 s⁻¹ and 56900 M⁻¹ s⁻¹.
In the same order, the values of B7 are 3.9 nM, 0.000293 s⁻¹ and 75200 M⁻¹ s⁻¹.
For B8, the Kd is 3.1 nM, the koff turned out to be 0.000141 s⁻¹ and the kon was 45000 M⁻¹ s⁻¹.
The like results for B9 were, in that order, 28.3 nM, 0.00058 s⁻¹ and 20500 M⁻¹ s⁻¹.
The like results for B10 were, in that order, 6 nM, 0.000118 s⁻¹ and 19800 M⁻¹ s⁻¹.
Molecule B12 had a Kd of 82.1 nM, a koff of 0.0238 s⁻¹ and a kon of 290000 M⁻¹ s⁻¹.
The like results for B13 were, in that order, 0.73 nM, 0.000437 s⁻¹ and 598000 M⁻¹ s⁻¹.
In the same order, the values of B14 are 4.1 nM, 0.00325 s⁻¹ and 792000 M⁻¹ s⁻¹.
In turn, B15 came in with an equilibrium dissociation constant (Kd) of 0.51 nM, a dissociation rate constant (koff) of 0.000452 s⁻¹ and an on-rate (kon) of 892000 M⁻¹ s⁻¹.
The like results for B17 were, in that order, 442 nM, 0.0261 s⁻¹ and 59100 M⁻¹ s⁻¹.
